How the values were obtained:
Assay in all cases: purified protein
Conditions in all cases: 0.5 mM H2O2, 50 mM KPi, 150 mM NaCl, pH 7.0, 25 °C
[1] = tested on: I
[2] = tested on: COc1ccccc1O
[3] = substrate: I; format: biochemical, cyanobacterium TDX16
[4] = substrate: COc1cccc(OC)c1O; format: biochemical, cyanobacterium TDX16
[5] = substrate: COc1ccccc1O; format: biochemical, cyanobacterium TDX16

bovine LPO (Bos taurus)
Km [1]: 14 mM
kcat [1]: 206 s⁻¹
kcat/Km [1]: 15000 M⁻¹ s⁻¹
Km [2]: 22 mM
kcat [2]: 10 s⁻¹
kcat/Km [2]: 500 M⁻¹ s⁻¹

B1: CyanoPOX (cyanobacterium TDX16) (protein)
chain: AQNRTIDGTDNNLSHNVWGSTNQHLDRAGPAAYADGMSMPAGGSRPSARAVSNGIAAQTGSMLNDRMLSDWVWQWGQFLDHDLDLTDAASPAESFPIPVPMGDPFFDPFNTGTQTIGLSRSAYDPATGSVDARQQMNQITSWIDASNVYGSDMTRANALRTMSGGRLATSAGDLLPFNTGGLPNAGGTSPSLFLAGDVRSNEQSGLAAVHTLFVREHNRLADQIAAANPGMGDEDIYQQARKIVGAQMQIITYNEFLPALLGSAAPSPMSIGYDDSINPNIMNEFANACYRVGHTMLSPTILRLDNAGNVIPHGNLALQDAFFNPNRIINEGGIAPILKGLASQAMQEIDNKIVDDVRNFLFGPPGSGGLDLASLNIQRGRDHGLPDYNSTRVMMGLTSVSSFADISSDPAVQAALMSLYGTVNDIDLWVGALAEDHLAGSSVGELIAAVLGEQFTRLRDGDRYWYERDDFFVNNPSLLAELQATRLSDIIRRNSDITNIQDNVFLIPEPATLGLLMFGAAFLRKRRS
notes: Predicted protein 556 residues; synthetic codon-optimised gene, His-tagged (calculated 58 kDa), E. coli NEB10beta, monomer
Km [3]: 7 mM
kcat [3]: 885 s⁻¹
kcat/Km [3]: 126000 M⁻¹ s⁻¹
Km [4]: 35 mM
kcat [4]: 620 s⁻¹
kcat/Km [4]: 18000 M⁻¹ s⁻¹
Km [5]: 59 mM
kcat [5]: 135 s⁻¹
kcat/Km [5]: 2000 M⁻¹ s⁻¹
